The target in test [1] is T1, ovalbumin protein (UniProt P01012 2-386).
T1 sequence (looked up): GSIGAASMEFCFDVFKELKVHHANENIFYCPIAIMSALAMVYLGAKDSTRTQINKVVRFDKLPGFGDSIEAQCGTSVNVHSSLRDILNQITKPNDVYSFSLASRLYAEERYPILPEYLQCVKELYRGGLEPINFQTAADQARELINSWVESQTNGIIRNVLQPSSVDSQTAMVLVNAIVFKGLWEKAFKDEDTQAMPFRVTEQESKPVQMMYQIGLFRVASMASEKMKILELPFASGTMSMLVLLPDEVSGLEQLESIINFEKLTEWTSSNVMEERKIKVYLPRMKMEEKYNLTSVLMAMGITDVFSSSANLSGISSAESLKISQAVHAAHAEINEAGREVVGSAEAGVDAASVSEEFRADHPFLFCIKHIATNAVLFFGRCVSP
The experiment in a line: FMAT bead immunoassay, culture supernatant. An excerpt:
(§1) Each of the expressed antibodies contained in culture supernatant was then screened in an FMAT (Fluorescent Microvolume Assay Technology) homogenous immunoassay. 29 positive antibodies were identified from this screening cascade that were negative for ovalbumin protein passively absorbed to polystyrene beads but positive for: [0158] (i) N-terminal coupled […] (22-38) (SEQ ID No:73) ovalbumin conjugate bound to polystyrene beads, [0159] (ii) N-terminal biotinylated β-amyloid(1-40) peptide bound to streptavidin coated polystyrene beads, [0160] (iii) C-terminal biotinylated β-amyloid(1-40) peptide bound to streptavidin coated polystyrene beads and [0161] (iv) N-terminal biotinylated β-amyloid (24-34) peptide, residues 24-34 of β-amyloid being […] (SEQ ID No:8), bound to streptavidin coated polystyrene beads.

Test [2] concerns the target T2, N-terminal coupled CGGGEDVGSNKGAIIGLMVGG (22-38) ovalbumin conjugate (coupled by the N-terminus to ovalbumin).
T2 peptide: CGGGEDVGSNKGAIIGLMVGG
The experiment in a line: FMAT bead immunoassay, culture supernatant.
Description: as §1

In test [3] the target is T3, N-terminal biotinylated β-amyloid (24-34) peptide.
T3 peptide: Biotin-VGSNKGAIIGL
The experiment in a line: FMAT bead immunoassay, culture supernatant.
Description: as §1

Test [4] deals with T4, human β-amyloid 1-40 (human, UniProt P05067 672-711).
T4 construct: domain: β-amyloid (1-40); Used in solution over captured antibody (Biacore) or coated on ELISA plates; also called human Aβ peptide (1-40); Aβ peptide (1-40)
The experiment in a line: SPR Biacore 3000; mAb captured on anti-mouse IgG, Aβ 1-40 at 4-500 nM. Here is the method: Purified mouse antibody preparations were captured on a polyclonal anti-mouse IgG antibody chip surface. Freshly prepared human β-amyloid 1-40 was diluted down in HBS-EP buffer and passed over the captured antibody surface at concentrations ranging from 4-500 nM for 5 minutes. […] Regeneration was achieved via a pulse of 100 mM H₃PO₄. […] All runs were double referenced against a blank surface and blank buffer injections.

Test [5] addresses T4, human β-amyloid 1-40. The experiment in a line: SPR Biacore T100; antibody captured on anti-human IgG, Aβ 1-40 at 1-256 nM; 1:1 model. Here is the method: (§2) Anti-human IgG (Biacore BR-1008-39) was coupled to a CM5 biosensor chip by primary amine coupling. The anti-beta amyloid antibodies were captured on this surface. Beta amyloid (1-40) was then passed over at 256, 64, 16, 4 and 1 nM, with a 0 nM (ie buffer alone passed over the captured antibody surface) used for double referencing. […] The data was analysed using the 1:1 model inherent to the T100. The run was carried out at 25° C. and 37° C. using HBS-EP as the running buffer.
A general note: SPR reads the build-up and loss of mass on a sensor chip optically.

In test [6] the target is T4, human β-amyloid 1-40. The experiment in a line: SPR Biacore T100 at 37 C; antibody captured on anti-human IgG, Aβ 1-40 at 1-256 nM. The protocol:
as §2
From this panel some constructs were also assessed for binding kinetics at physiological temperature.

Data on 13 molecules can be found in patent publication US20090162358A1 (GlaxoSmithKline, published 2009).

Ends that are not written are not given here. * marks the point of attachment. Biotin = O=C1N[C@H]2[C@H](CS[C@H]2CCCCC(=O)*)N1

T4 sequence (P05067 672-711 limits assumed): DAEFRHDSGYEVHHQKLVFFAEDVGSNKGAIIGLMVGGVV

B1: 2C1 mouse monoclonal antibody (antibody, V domains shown)
VH: EVQLQQSGAELVKPGASVKLSCTGSGFNIKVYYVHWLKQLTEQGLEWIGRIDPENGETIYAPKFQDKATLTVDTSSNTAYLQLSSLTSEDTAVYYCVSSGYWGQGTTLTVSS
VL: DIVMTQSAFSNPVTLGTSASISCRSSKSLLHRNGITYLYWYLQKPGQSPQLLIYQMSNLASGVPDRFTSSGSGTDFTLKISRVEAEDVGVYYCAQNLELWTFGGGTKLEIK
notes: Mouse hybridoma antibody
For orientation: Kd means a measure of binding affinity in units of concentration. Lower therefore signals tighter binding. A word on the koff: it is the rate constant with which the complex falls apart. Usually kon stands for the second-order rate constant of association. Low values mean slower complex formation, high ones faster complex formation. B1: the binding result in test [1] is “no binding”. Also, the binding result in test [2] is on record as “binds”. The binding result in test [3] is “binds”. In addition, in test [4], the dissociation constant Kd amounted to 1.95 nM, the koff was 0.000129 s⁻¹ and the kon was found to be 66300 M⁻¹ s⁻¹.

B2: 2E11 mouse monoclonal antibody (antibody, V domains shown)
VH: EVQLQQSGAEVVKPGASVKLSCTASGFNIKVYYIHWLKQLTEQGLEWIGRIDPENGETKYVPKFQGKATLTVDTSSNTAYLHLSSLTSEDTGVYYCVTSGYWGQGTTLTVSS
VL: DIVMTQAAFSNPVALGTSASISCRSSKSLLHSNGITYLYWYLQKPGQSPQLLIYQMSNLASGVPDRFSSSGSGTDFTLRISRVEAEDVGVYYCAQNLELWTFGGGTKLEIK
notes: Mouse hybridoma antibody
Consider B2, for which the binding result in test [1] was “no binding”. Also, the binding result in test [2] is “binds”. Moreover, in test [3], the binding result is listed as “binds”. Further, in test [4], the Kd stood at 2.01 nM, the off-rate (koff) was determined as 0.00017 s⁻¹ and the kon was 84500 M⁻¹ s⁻¹.

B3: 5C9 mouse monoclonal antibody (antibody, V domains shown)
VH: EVQLQQSGAEFVRPGASVKLSCTASGFNIKTYYIHWLKQRTDQGLEWIGRIDPEDGETKFGPKFRGKATLTADTSSNTASLQLSSLTSEDTGVYYCVTSGYWGQGTTLSVSS
VL: DIVMTQAAFSNPVTLGTSASISCRSSKSLLHSNGITYLYWYLQKPGQSPQLLIYQMSNLASGVPDRFSSSGSGTDFTLRISRVEAEDVGVYYCAQNLELWTFGGGTKLEIK
notes: Mouse hybridoma antibody
On to B3, for which the binding result in test [1] was “no binding”; in test [2] it was “binds”; in test [3] it was “binds”. In test [4], this molecule gave an equilibrium dissociation constant (Kd) of 2.69 nM. The molecule also displayed a koff in test [4] of 0.000164 s⁻¹. The molecule further had a kon in test [4] of 61100 M⁻¹ s⁻¹.

B4: 16D4 mouse monoclonal antibody (antibody, V domains shown)
VH: EVQLQQSGAELVKPGASVKLSCTASGFNIKDYYMHWLKQLTEQGLEWIGRIDPENGETQYAPKFQGKASLTADTSSNTAYLHLSSLTSEDTAVYYCVSSGYWGQGTTLTVSS
VL: DIVMTQAAFSNPVTLGTSASISCRSSKSLLHSNGITYLYWYLQKPGQSPQLLIYQMSNLASGVPDRFSSSGSGTDFTLRISRVEAEDVGVYYCAQNLELWTFGGGTKLEIK
notes: Mouse hybridoma antibody
Regarding B4, the binding result in test [1] was “no binding”. For the same molecule, the binding result in test [2] is reported as “binds”. Besides, in test [3], the binding result is reported as “binds”. In test [4], this molecule yielded an equilibrium dissociation constant (Kd) of 7.62 nM, a dissociation rate constant (koff) of 0.000618 s⁻¹ and a kon of 81200 M⁻¹ s⁻¹.

B5: 14B3 mouse monoclonal antibody (antibody, V domains shown)
VH: EVQLQQSGAELVEPGASVKLSCTGSGFNIKVYYVHWLKQLTEQGLEWIGRIDPENGETLYTPKFQGKATFTVDTSSNTAYLQLSSLTSEDTAVYYCVSSGYWGQGTTLTVSS
VL: DIVMTQSAFSNPVTLGTSASISCRSSKSLLHRNGITYLYWYLQKPGQSPQLLIYQMSNLASGVPDRFTSSGSGTDFTLKISRVEAEDVGVYYCAQNLELWTFGGGTKLEIK
notes: Mouse hybridoma antibody
As to B5, the binding result in test [1] is reported as “no binding”. Also, the binding result in test [2] is on record as “binds”. Moreover, the binding result in test [3] is reported as “binds”. Also, in test [4], binding was characterised by a dissociation constant (Kd) of 0.95 nM, the dissociation rate constant (koff) is 7.11e-05 s⁻¹ and the kon was determined as 74800 M⁻¹ s⁻¹.

B6: 4D4 mouse monoclonal antibody (antibody, V domains shown)
VH: EVQLQQSGAELVEPGASVKLSCTGSGFNIKVYYVHWLKQLTEQGLEWIGRIDPENGETLYTPKFQGKATLTVDTSSNTAYLQLNSLTSEDTAVYYCVSSGYWGQGTSLTVSS
VL: DIVMTQSAFSNPVTLGTSASISCRSSKSLLHRNGITYLYWYLQKPGQSPQLLIYQMSNLASGVPDRFTSSGSGTDFTLKISRVEAEDVGVYYCAQNLELWTFGGGTKLEIK
notes: Mouse hybridoma antibody
Take B6: the binding result in test [1] was “no binding”. Besides, the binding result in test [2] is “binds”. Also, the binding result in test [3] is “binds”. In test [4], this molecule displayed a Kd of 1.13 nM, a koff of 8.27e-05 s⁻¹ and a kon of 73200 M⁻¹ s⁻¹.

B7: humanised de-immunised construct H48L19 (antibody, human IgG1, V domains shown)
VH: QVQLVQSGAEVKEPGASVKVSCKGSGFNIHVYYVHWLRQLPEKGLEWIGRIDPENGETIYTPKFQDKATLTVDTSTDTAYMELSSLRSEDTAVYYCVSSGYWGQGTLVTVSS
VL: DIVMTQSPLSNPVTPGEPASISCRSSKSLLHRNGKTYLYWYLQKPGQSPQLLIYQMDHLASGVPDRFSSSGSGTDFTLKISRVEAEDVGVYYCAQNLELWTFGQGTKVEIK
In test [5], B7 displayed a Kd of 3.15 nM.

B8: humanised de-immunised construct H51L19 (antibody, human IgG1, V domains shown)
VH: QVQLVQSGAEVKEPGASVKVSCKGSGFNIHTYYVHWLRQLPEKGLEWIGRIDPENGETIYTPKFQDKATLTVDTSTDTAYMELSSLRSEDTAVYYCVSSGYWGQGTLVTVSS
VL: DIVMTQSPLSNPVTPGEPASISCRSSKSLLHRNGKTYLYWYLQKPGQSPQLLIYQMDHLASGVPDRFSSSGSGTDFTLKISRVEAEDVGVYYCAQNLELWTFGQGTKVEIK
With B8, the Kd in test [5] was determined as 2.65 nM.

B9: humanised de-immunised construct H49L20 (antibody, human IgG1, V domains shown)
VH: QVQLVQSGAEVKEPGASVKVSCKGSGFNIKTYYVHWLRQLPEKGLEWIGRIDPENGETIYTPKFQDKATLTVDTSTDTAYMELSSLRSEDTAVYYCVSSGYWGQGTLVTVSS
VL: DIVMTQSPLSNPVTPGEPASISCRSSKSLLHRNGITYLYWYLQKPGQSPQLLIYQMDHLASGVPDRFSSSGSGTDFTLKISRVEAEDVGVYYCAQNLELWTFGQGTKVEIK
B9 showed a Kd in test [5] of 2.23 nM.

B10: humanised de-immunised construct H49L21 (antibody, human IgG1, V domains shown)
VH: QVQLVQSGAEVKEPGASVKVSCKGSGFNIKTYYVHWLRQLPEKGLEWIGRIDPENGETIYTPKFQDKATLTVDTSTDTAYMELSSLRSEDTAVYYCVSSGYWGQGTLVTVSS
VL: DIVMTQSPLSNPVTPGEPASISCRSSKSLLHRNGKTYLYWYLQKPGQSPQLLIYQMDNLASGVPDRFSSSGSGTDFTLKISRVEAEDVGVYYCAQNLELWTFGQGTKVEIK
In turn, B10 came in with a Kd in test [5] of 2.58 nM.

B11: humanised de-immunised construct H49L19 (antibody, human IgG1, V domains shown)
VH: QVQLVQSGAEVKEPGASVKVSCKGSGFNIKTYYVHWLRQLPEKGLEWIGRIDPENGETIYTPKFQDKATLTVDTSTDTAYMELSSLRSEDTAVYYCVSSGYWGQGTLVTVSS
VL: DIVMTQSPLSNPVTPGEPASISCRSSKSLLHRNGKTYLYWYLQKPGQSPQLLIYQMDHLASGVPDRFSSSGSGTDFTLKISRVEAEDVGVYYCAQNLELWTFGQGTKVEIK
Regarding B11, in test [5], the dissociation constant (Kd) is 3.09 nM.

B12: humanised de-immunised construct H48L20 (antibody, human IgG1, V domains shown)
VH: QVQLVQSGAEVKEPGASVKVSCKGSGFNIHVYYVHWLRQLPEKGLEWIGRIDPENGETIYTPKFQDKATLTVDTSTDTAYMELSSLRSEDTAVYYCVSSGYWGQGTLVTVSS
VL: DIVMTQSPLSNPVTPGEPASISCRSSKSLLHRNGITYLYWYLQKPGQSPQLLIYQMDHLASGVPDRFSSSGSGTDFTLKISRVEAEDVGVYYCAQNLELWTFGQGTKVEIK
Consider B12, for which the Kd in test [6] was 3.54 nM; in test [5], 2.02 nM.

B13: humanised de-immunised construct H50L19 (antibody, human IgG1, V domains shown)
VH: QVQLVQSGAEVKEPGASVKVSCTGSGFNIHVYYVHWLRQLPEKGLEWIGRIDPENGETIYTPKFQDKATLTVDTSTDTAYMELSSLRSEDTAVYYCVSSGYWGQGTLVTVSS
VL: DIVMTQSPLSNPVTPGEPASISCRSSKSLLHRNGKTYLYWYLQKPGQSPQLLIYQMDHLASGVPDRFSSSGSGTDFTLKISRVEAEDVGVYYCAQNLELWTFGQGTKVEIK
In test [5], B13 registered a Kd of 2.76 nM.
